{"source": "paper PMC7396675", "about": "“Functional and Structural Characterization of a Potent C1q Inhibitor Targeting the Classical Pathway of the Complement System” (Frontiers in Immunology, 2020)", "binders": {"B1": {"name": "C1qNb75 (VHH)", "VHH": "QVQLVETGGGLVQAGGSLRLSCAASGRTFNNDVMAWFRQAPGTEREFVALITAGGGTHYADSVKGRFVISRDNDKNMAYLQMNSLKSEDTAIYYCGADENPPGWPSRWSSAYDYWGQGTQVTVSS", "notes": "nanobody chain of the crystal structure deposited here as PDB 6Z6V; also called C1q specific nanobody; source: E. coli LOBSTR cells (pET22b+), purified (Ni-NTA, MonoS, Superdex75)"}}, "key": {"human C1q": {"target": "human C1q (Homo sapiens, UniProt P02745;P02746;P02747)", "sequence (P02745 23-245, chain 1 of 2)": "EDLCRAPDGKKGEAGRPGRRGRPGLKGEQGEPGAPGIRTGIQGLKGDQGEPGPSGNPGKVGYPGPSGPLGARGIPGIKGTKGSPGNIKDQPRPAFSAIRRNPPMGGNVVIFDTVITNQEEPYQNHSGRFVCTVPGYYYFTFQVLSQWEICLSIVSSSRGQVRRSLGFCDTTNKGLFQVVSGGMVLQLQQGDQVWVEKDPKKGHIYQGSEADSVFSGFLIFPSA", "sequence (P02747 29-245, chain 3 of 2)": "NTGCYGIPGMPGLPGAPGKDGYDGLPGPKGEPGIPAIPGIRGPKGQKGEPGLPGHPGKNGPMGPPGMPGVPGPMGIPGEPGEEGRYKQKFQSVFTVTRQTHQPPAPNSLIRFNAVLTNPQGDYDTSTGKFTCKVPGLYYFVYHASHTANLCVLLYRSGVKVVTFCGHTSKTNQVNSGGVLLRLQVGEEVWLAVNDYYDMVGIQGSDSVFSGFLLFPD", "experiment": "cell-based or functional assay"}, "[1]": {"target": "T1, monomeric single-chain recombinant gC1q (Homo sapiens)", "T1 construct": "globular head module of human C1q A-chain; numbers count on: the mature protein; globular head module of human C1q C-chain; globular head module of human C1q B-chain; also called single-chain form of gC1q; hC1qGH", "T1 chain": "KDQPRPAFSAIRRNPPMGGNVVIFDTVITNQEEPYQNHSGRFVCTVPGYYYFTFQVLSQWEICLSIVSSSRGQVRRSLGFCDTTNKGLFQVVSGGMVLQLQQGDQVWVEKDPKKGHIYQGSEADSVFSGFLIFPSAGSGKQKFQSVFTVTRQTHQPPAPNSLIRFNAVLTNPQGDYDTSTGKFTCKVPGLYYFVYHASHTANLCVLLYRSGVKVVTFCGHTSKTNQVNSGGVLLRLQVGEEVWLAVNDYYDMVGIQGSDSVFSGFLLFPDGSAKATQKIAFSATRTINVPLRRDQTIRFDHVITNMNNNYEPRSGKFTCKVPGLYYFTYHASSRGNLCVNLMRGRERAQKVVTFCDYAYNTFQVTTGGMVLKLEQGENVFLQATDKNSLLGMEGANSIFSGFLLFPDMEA", "experiment": "BLI; Octet Red96, 30°C, 1,000 rpm; C1qNb75 immobilized on amine reactive (AR2G) biosensors; kinetics buffer (PBS, 1 mg/mL BSA, 0.05% Tween 20); gC1q 0.3 to 10.9 nM, C1q 0.7 to 5.4 nM; gC1q data globally fitted with a 1:1 binding model", "settings": "both partners purified"}}}
{"binder": "B1", "values": [{"measurement": "IC50 of hemolysis of IgM-sensitized sheep RBCs in NHS with increasing concentrations of C1qNb75 (blocks C1q binding to IgM)", "setting": "human C1q", "value": 5.8, "unit": "nM"}, {"measurement": "Kd", "setting": "[1]", "value": 0.3, "unit": "nM"}, {"measurement": "t1/2", "setting": "[1]", "value": 1.14, "unit": "h"}]}
